Results from PMC5415356.

Target: PATJ (UniProt Q8NI35)
Assay: reciprocal co-IP (Flag or HA), immunoblot
Details: reference: wild type HA-Amot-p130; sites S176

binding against the reference: lost
Substance: Amot-p130 (Angiomotin) (from UniProt Q8VHG2) S176A
